In the assay the target is hMuSK-Fc (chimeric protein of the secretory human MuSK extracellular portion and human IgG1 Fc) (human) (UniProt O15146). Put plainly: SPR (Biacore T200), Fc-tagged human MuSK on Protein G/A chip, 1:1 fit.

Bridge positions count the residues as written; N and C are the ends. Square brackets hold non-standard residues; d marks the D form. Ends that are not written are not given here.

Sequence of hMuSK-Fc (chimeric protein of the secretory human MuSK extracellular portion and human IgG1 Fc) (human) (O15146 24-493, change not shown, form in doubt): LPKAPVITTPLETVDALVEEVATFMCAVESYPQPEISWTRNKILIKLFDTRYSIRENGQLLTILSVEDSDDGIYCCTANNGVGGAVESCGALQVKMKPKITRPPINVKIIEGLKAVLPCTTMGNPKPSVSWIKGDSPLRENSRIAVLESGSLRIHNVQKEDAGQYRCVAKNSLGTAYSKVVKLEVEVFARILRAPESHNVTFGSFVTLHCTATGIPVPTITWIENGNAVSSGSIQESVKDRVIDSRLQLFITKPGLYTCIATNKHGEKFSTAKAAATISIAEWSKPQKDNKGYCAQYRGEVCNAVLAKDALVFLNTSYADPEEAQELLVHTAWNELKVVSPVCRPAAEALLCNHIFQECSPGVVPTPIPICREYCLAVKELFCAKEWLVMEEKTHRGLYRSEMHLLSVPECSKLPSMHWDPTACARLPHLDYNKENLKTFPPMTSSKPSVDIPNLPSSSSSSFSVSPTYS

B1: Homodimer of MuSK7 with an introduced palmitoyl group (MuSK7-pal) (peptide)
peptide: {CH2CO}-[dY]PSYHTNVVASLKRC
modifications: thioether N-15; also: homodimer: two peptides condensed via C-terminal Cys carboxyl with linking unit bearing palmitic acid
For the molecule B1, the Kd is 0.9 nM.

A word on the Kd: it is the equilibrium constant for the complex coming apart. A lower Kd goes with higher affinity.

Values taken from patent publication EP4722228A1, “NEW COMPOUND TARGETING MUSK AND USE THEREOF” (The University of Tokyo, priority 2023, dated 2024).
